Reference: EP4568683A2 (dated 2025)

Assays:
[1] = molecular target: T1, human PSMA expressed on prostate cancer cell lines (22Rv1, C4-2B, PC3-PSMA) (human, UniProt Q04609 1-750); assay: flow cytometry on PSMA-expressing 22Rv1 cells, PE anti-human IgG-Fc secondary, MFI
T1 construct: Endogenous PSMA on 22Rv1 and C4-2B cells; PC3 cells were engineered to express PSMA; also called prostate specific membrane antigen; FOLH1

[2] = molecular target: T2, recombinant human PSMA protein (human, UniProt Q04609 44-750); assay: ELISA, plates coated with 1 ug/mL recombinant human PSMA
T2 construct: On Blue native PAGE the protein appeared to be a mixture of dimer and monomer; also called recombinant human PSMA (Acro Biosciences / Acro Biosystems; printed 'Aero')
T2 sequence (Q04609 44-750 limits assumed): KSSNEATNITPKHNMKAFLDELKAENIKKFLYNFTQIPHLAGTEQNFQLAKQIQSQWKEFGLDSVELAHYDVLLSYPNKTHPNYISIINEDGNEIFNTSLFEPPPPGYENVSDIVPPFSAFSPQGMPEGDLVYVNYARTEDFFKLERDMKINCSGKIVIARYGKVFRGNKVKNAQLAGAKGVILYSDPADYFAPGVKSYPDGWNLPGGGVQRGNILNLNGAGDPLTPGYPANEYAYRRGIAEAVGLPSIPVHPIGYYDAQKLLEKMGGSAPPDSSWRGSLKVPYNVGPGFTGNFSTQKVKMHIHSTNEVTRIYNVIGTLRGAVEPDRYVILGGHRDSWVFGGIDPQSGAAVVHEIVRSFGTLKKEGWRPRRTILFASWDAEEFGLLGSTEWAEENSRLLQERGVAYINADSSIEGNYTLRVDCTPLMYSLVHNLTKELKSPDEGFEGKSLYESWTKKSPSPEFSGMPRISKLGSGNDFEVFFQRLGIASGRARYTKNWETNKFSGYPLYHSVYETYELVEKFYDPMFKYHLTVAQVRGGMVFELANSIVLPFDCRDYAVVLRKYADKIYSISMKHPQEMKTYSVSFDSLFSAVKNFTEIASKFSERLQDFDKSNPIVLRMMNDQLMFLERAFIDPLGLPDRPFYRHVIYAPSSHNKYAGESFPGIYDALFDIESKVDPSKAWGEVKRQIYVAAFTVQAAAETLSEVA

T1 sequence (Q04609 whole entry): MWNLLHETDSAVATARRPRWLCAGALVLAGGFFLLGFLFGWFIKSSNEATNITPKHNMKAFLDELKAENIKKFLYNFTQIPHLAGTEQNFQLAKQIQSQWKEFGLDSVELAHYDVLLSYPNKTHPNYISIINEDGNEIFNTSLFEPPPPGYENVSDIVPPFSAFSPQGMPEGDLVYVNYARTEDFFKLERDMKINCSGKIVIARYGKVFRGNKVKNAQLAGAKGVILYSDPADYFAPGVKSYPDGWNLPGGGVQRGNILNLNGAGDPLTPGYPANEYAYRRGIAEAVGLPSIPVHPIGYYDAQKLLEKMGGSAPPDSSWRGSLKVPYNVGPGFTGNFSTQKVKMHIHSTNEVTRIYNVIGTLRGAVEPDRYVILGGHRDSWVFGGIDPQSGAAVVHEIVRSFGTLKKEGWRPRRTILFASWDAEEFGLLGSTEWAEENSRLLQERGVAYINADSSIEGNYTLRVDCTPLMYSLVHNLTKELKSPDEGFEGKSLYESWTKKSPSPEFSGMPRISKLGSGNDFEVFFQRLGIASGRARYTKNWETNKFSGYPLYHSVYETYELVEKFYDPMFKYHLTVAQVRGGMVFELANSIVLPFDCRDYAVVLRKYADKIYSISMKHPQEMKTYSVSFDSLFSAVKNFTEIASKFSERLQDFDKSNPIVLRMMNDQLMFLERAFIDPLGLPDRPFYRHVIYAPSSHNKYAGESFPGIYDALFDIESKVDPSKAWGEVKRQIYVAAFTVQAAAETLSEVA

B1: benchmark antibody J591 (antibody, V domains shown)
VH: EVQLQQSGPELKKPGTSVRISCKTSGYTFTEYTIHWVKQSHGKSLEWIGNINPNNGGTTYNQKFEDKATLTVDKSSSTAYMELRSLTSEDSAVYYCAAGWNFDYWGQGTTLTVSS
VL: DIVMTQSHKFMSTSVGDRVSIICKASQDVGTAVDWYQQKPGQSPKLLIYWASTRHTGVPDRFTGSGSGTDFTLTITNVQSEDLADYFCQQYNSYPLTFGAGTMLDLK
notes: It was detected with anti-human IgG Fc secondary antibody; also called Benchmark (J591)
[1]
  binding result: binds
[2]
  binding result: binds
